Measurements from the supplement of paper PMC5998384.

What was measured:
HeLa Kyoto [1] = assay: thermal stability score vs G1/S (z-score of summed log2 fold changes over temperatures); higher = more thermally stable than in G1/S
HeLa Kyoto [2] = assay: solubility in G1/S (NP-40 vs SDS abundance) (log2 ratio); higher = more soluble; conditions: cell cycle stage: G1/S
HeLa Kyoto [3] = assay: solubility change mitosis vs G1/S (difference of NP-40 vs SDS log2 ratios) (log2 ratio difference); higher = more soluble in mitosis
HeLa Kyoto [4] = assay: melting temperature (median over replicates), in situ; higher = more thermally stable
[5] = cell cycle stage: early G1 (4.5 h after nocodazole release)
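Wherever melting temperature (median over replicates), in situ is given: HeLa Kyoto cells synchronized by double thymidine or nocodazole block, proteins quantified by TMT10plex mass spectrometry, three independent biological replicates.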
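Wherever solubility change mitosis vs G1/S (difference of NP-40 vs SDS log2 ratios) is given: synchronized HeLa Kyoto cells (double thymidine block for G1/S, nocodazole release for mitosis), protein amounts in NP-40 versus SDS lysates quantified by mass spectrometry, three biological replicates.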
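Wherever solubility in G1/S (NP-40 vs SDS abundance) is given: HeLa Kyoto cells arrested at G1/S by double thymidine block, proteins quantified by TMT10plex mass spectrometry in mild NP-40 versus SDS extracts, three biological replicates.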
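Wherever thermal stability score vs G1/S (z-score of summed log2 fold changes over temperatures) is given: synchronized HeLa Kyoto cells, proteins quantified by TMT10plex mass spectrometry, three biological replicates, mitosis taken 0.5 h after nocodazole release, G1/S directly after double thymidine block.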

| Sequence | thermal stability score (HeLa Kyoto [1]; [5]) | thermal stability score (HeLa Kyoto [1]; cell cycle stage: mitosis) | solubility in G1/S (log2) (HeLa Kyoto [2]) | solubility change mitosis (log2) (HeLa Kyoto [3]) | melting temperature (HeLa Kyoto [4]; cell cycle stage: G1/S) [°C] | melting temperature (HeLa Kyoto [4]; cell cycle stage: mitosis) [°C] |
| --- | --- | --- | --- | --- | --- | --- |
| MREYKLVVLGSGGVGKSALTVQFVQGIFVEKYDPTIEDSYRKQVEVDCQQCMLEILDTAGTEQFTAMRDLYMKNGQGFALVYSITAQSTFNDLQDLREQILRVKDTEDVPMILVGNKCDLEDERVVGKEQGQNLARQWCNCAFLESSAKSKINVNEIFYDLVRQINRKTPVEKKKPKKKSCLLL [RAP1A] | 1.29 | -0.46 | 0.0631 | -0.0963 | 58.5 | 57.6 |
| MRLGSGTFATCCVAIEVLGIAVFLRGFFPAPVRSSARAEHGAEPPAPEPSAGASSNWTTLPPPLFSKVVIVLIDALRDDFVFGSKGVKFMPYTTYLVEKGASHSFVAEAKPPTVTMPRIKALMTGSLPGFVDVIRNLNSPALLEDSVIRQAKAAGKRIVFYGDETWVKLFPKHFVEYDGTTSFFVSDYTEVDNNVTRHLDKVLKRGDWDILILHYLGLDHIGHISGPNSPLIGQKLSEMDSVLMKIHTSLQSKERETPLPNLLVLCGDHGMSETGSHGASSTEEVNTPLILISSAFERKPGDIRHPKHVQQTDVAATLAIALGLPIPKDSVGSLLFPVVEGRPMREQLRFLHLNTVQLSKLLQENVPSYEKDPGFEQFKMSERLHGNWIRLYLEEKHSEVLFNLGSKVLRQYLDALKTLSLSLSAQVAQYDIYSMMVGTVVVLEVLTLLLLSVPQALRRKAELEVPLSSPGFSLLFYLVILVLSAVHVIVCTSAESSCYFCGLSWLAAGGVMVLASALLCVIVSVLTNVLVGGNTPRKNPMHPSSRWSELDLLILLGTAGHVLSLGASSFVEEEHQTWYFLVNTLCLALSQETYRNYFLGDDGEPPCGLCVEQGHDGATAAWQDGPGCDVLERDKGHGSPSTSEVLRGREKWMVLASPWLILACCRLLRSLNQTGVQWAHRPDLGHWLTSSDHKAELSVLAALSLLVVFVLVQRGCSPVSKAALALGLLGVYCYRAAIGSVRFPWRPDSKDISKGIIEARFVYVFVLGILFTGTKDLLKSQVIAADFKLKTVGLWEIYSGLVLLAALLFRPHNLPVLAFSLLIQTLMTKFIWKPLRHDAAEITVMHYWFGQAFFYFQGNSNNIATVDISAGFVGLDTYVEIPAVLLTAFGTYAGPVLWASHLVHFLSSETRSGSALSHACFCYALICSIPVFTYIVLVTSLRYHLFIWSVFSPKLLYEGMHLLITAAVCVFFTAMDQTRLTQS [PIGG] | 0.623 | -0.407 | -0.239 | 0.00219 | 54.1 | 53.8 |
| MRLLPLAPGRLRRGSPRHLPSCSPALLLLVLGGCLGVFGVAAGTRRPNVVLLLTDDQDEVLGGMTPLKKTKALIGEMGMTFSSAYVPSALCCPSRASILTGKYPHNHHVVNNTLEGNCSSKSWQKIQEPNTFPAILRSMCGYQTFFAGKYLNEYGAPDAGGLEHVPLGWSYWYALEKNSKYYNYTLSINGKARKHGENYSVDYLTDVLANVSLDFLDYKSNFEPFFMMIATPAPHSPWTAAPQYQKAFQNVFAPRNKNFNIHGTNKHWLIRQAKTPMTNSSIQFLDNAFRKRWQTLLSVDDLVEKLVKRLEFTGELNNTYIFYTSDNGYHTGQFSLPIDKRQLYEFDIKVPLLVRGPGIKPNQTSKMLVANIDLGPTILDIAGYDLNKTQMDGMSLLPILRGASNLTWRSDVLVEYQGEGRNVTDPTCPSLSPGVSQCFPDCVCEDAYNNTYACVRTMSALWNLQYCEFDDQEVFVEVYNLTADPDQITNIAKTIDPELLGKMNYRLMMLQSCSGPTCRTPGVFDPGYRFDPRLMFSNRGSVRTRRFSKHLL [GNS] | -1.62 | -1.58 | 0.471 | 0.0867 | 57.1 | 57.6 |
| MRLPDLRPWTSLLLVDAALLWLLQGPLGTLLPQGLPGLWLEGTLRLGGLWGLLKLRGLLGFVGTLLLPLCLATPLTVSLRALVAGASRAPPARVASAPWSWLLVGYGAAGLSWSLWAVLSPPGAQEKEQDQVNNKVLMWRLLKLSRPDLPLLVAAFFFLVLAVLGETLIPHYSGRVIDILGGDFDPHAFASAIFFMCLFSFGSSLSAGCRGGCFTYTMSRINLRIREQLFSSLLRQDLGFFQETKTGELNSRLSSDTTLMSNWLPLNANVLLRSLVKVVGLYGFMLSISPRLTLLSLLHMPFTIAAEKVYNTRHQEVLREIQDAVARAGQVVREAVGGLQTVRSFGAEEHEVCRYKEALEQCRQLYWRRDLERALYLLVRRVLHLGVQMLMLSCGLQQMQDGELTQGSLLSFMIYQESVGSYVQTLVYIYGDMLSNVGAAEKVFSYMDRQPNLPSPGTLAPTTLQGVVKFQDVSFAYPNRPDRPVLKGLTFTLRPGEVTALVGPNGSGKSTVAALLQNLYQPTGGQVLLDEKPISQYEHCYLHSQVVSVGQEPVLFSGSVRNNIAYGLQSCEDDKVMAAAQAAHADDFIQEMEHGIYTDVGEKGSQLAAGQKQRLAIARALVRDPRVLILDEATSALDVQCEQALQDWNSRGDRTVLVIAHRLQTVQRAHQILVLQEGKLQKLAQL [TAP2] | 0.266 | 0.39 | -0.259 | -0.195 | 49.8 | 50.4 |
| MRLPRRAALGLLPLLLLLPPAPEAAKKPTPCHRCRGLVDKFNQGMVDTAKKNFGGGNTAWEEKTLSKYESSEIRLLEILEGLCESSDFECNQMLEAQEEHLEAWWLQLKSEYPDLFEWFCVKTLKVCCSPGTYGPDCLACQGGSQRPCSGNGHCSGDGSRQGDGSCRCHMGYQGPLCTDCMDGYFSSLRNETHSICTACDESCKTCSGLTNRDCGECEVGWVLDEGACVDVDECAAEPPPCSAAQFCKNANGSYTCEECDSSCVGCTGEGPGNCKECISGYAREHGQCADVDECSLAEKTCVRKNENCYNTPGSYVCVCPDGFEETEDACVPPAEAEATEGESPTQLPSREDL [CRELD2] | -5.44 | -1.73 | 0.092 | -0.0918 | 57.2 | 59.6 |
| MRMSVGLSLLLPLSGRTFLLLLSVVMAQSHWPSEPSEAVRDWENQLEASMHSVLSDLHEAVPTVVGIPDGTAVVGRSFRVTIPTDLIASSGDIIKVSAAGKEALPSWLHWDSQSHTLEGLPLDTDKGVHYISVSATRLGANGSHIPQTSSVFSIEVYPEDHSELQSVRTASPDPGEVVSSACAADEPVTVLTVILDADLTKMTPKQRIDLLHRMRSFSEVELHNMKLVPVVNNRLFDMSAFMAGPGNAKKVVENGALLSWKLGCSLNQNSVPDIHGVEAPAREGAMSAQLGYPVVGWHIANKKPPLPKRVRRQIHATPTPVTAIGPPTTAIQEPPSRIVPTPTSPAIAPPTETMAPPVRDPVPGKPTVTIRTRGAIIQTPTLGPIQPTRVSEAGTTVPGQIRPTMTIPGYVEPTAVATPPTTTTKKPRVSTPKPATPSTDSTTTTTRRPTKKPRTPRPVPRVTTKVSITRLETASPPTRIRTTTSGVPRGGEPNQRPELKNHIDRVDAWVGTYFEVKIPSDTFYDHEDTTTDKLKLTLKLREQQLVGEKSWVQFNSNSQLMYGLPDSSHVGKHEYFMHATDKGGLSAVDAFEIHVHRRPQGDRAPARFKAKFVGDPALVLNDIHKKIALVKKLAFAFGDRNCSTITLQNITRGSIVVEWTNNTLPLEPCPKEQIAGLSRRIAEDDGKPRPAFSNALEPDFKATSITVTGSGSCRHLQFIPVVPPRRVPSEAPPTEVPDRDPEKSSEDDVYLHTVIPAVVVAAILLIAGIIAMICYRKKRKGKLTLEDQATFIKKGVPIIFADELDDSKPPPSSSMPLILQEEKAPLPPPEYPNQSVPETTPLNQDTMGEYTPLRDEDPNAPPYQPPPPFTAPMEGKGSRPKNMTPYRSPPPYVPP [DAG1] | -2.43 | -3.27 | -0.103 | 0.19 | 54.1 | 54.9 |
| MRPGTGAERGGLMVSEMESHPPSQGPGDGERRLSGSSLCSGSWVSADGFLRRRPSMGHPGMHYAPMGMHPMGQRANMPPVPHGMMPQMMPPMGGPPMGQMPGMMSSVMPGMMMSHMSQASMQPALPPGVNSMDVAAGTASGAKSMWTEHKSPDGRTYYYNTETKQSTWEKPDDLKTPAEQLLSKCPWKEYKSDSGKPYYYNSQTKESRWAKPKELEDLEGYQNTIVAGSLITKSNLHAMIKAEESSKQEECTTTSTAPVPTTEIPTTMSTMAAAEAAAAVVAAAAAAAAAAAAANANASTSASNTVSGTVPVVPEPEVTSIVATVVDNENTVTISTEEQAQLTSTPAIQDQSVEVSSNTGEETSKQETVADFTPKKEEEESQPAKKTYTWNTKEEAKQAFKELLKEKRVPSNASWEQAMKMIINDPRYSALAKLSEKKQAFNAYKVQTEKEEKEEARSKYKEAKESFQRFLENHEKMTSTTRYKKAEQMFGEMEVWNAISERDRLEIYEDVLFFLSKKEKEQAKQLRKRNWEALKNILDNMANVTYSTTWSEAQQYLMDNPTFAEDEELQNMDKEDALICFEEHIRALEKEEEEEKQKSLLRERRRQRKNRESFQIFLDELHEHGQLHSMSSWMELYPTISSDIRFTNMLGQPGSTALDLFKFYVEDLKARYHDEKKIIKDILKDKGFVVEVNTTFEDFVAIISSTKRSTTLDAGNIKLAFNSLLEKAEAREREREKEEARKMKRKESAFKSMLKQAAPPIELDAVWEDIRERFVKEPAFEDITLESERKRIFKDFMHVLEHECQHHHSKNKKHSKKSKKHHRKRSRSRSGSDSDDDDSHSKKKRQRSESRSASEHSSSAESERSYKKSKKHKKKSKKRRHKSDSPESDAEREKDKKEKDRESEKDRTRQRSESKHKSPKKKTGKDSGNWDTSGSELSEGELEKRRRTLLEQLDDDQ [PRPF40A] | 1.36 | 6.53 | -1.2 | 0.633 | 47.1 | 48.8 |
| MRPLTEEETRVMFEKIAKYIGENLQLLVDRPDGTYCFRLHNDRVYYVSEKIMKLAANISGDKLVSLGTCFGKFTKTHKFRLHVTALDYLAPYAKYKVWIKPGAEQSFLYGNHVLKSGLGRITENTSQYQGVVVYSMADIPLGFGVAAKSTQDCRKVDPMAIVVFHQADIGEYVRHEETLT [NIP7] | -2 | -2.49 | -1.97 | 0.622 | 55.5 | 53.8 |
| MRQKRKGDLSPAELMMLTIGDVIKQLIEAHEQGKDIDLNKVKTKTAAKYGLSAQPRLVDIIAAVPPQYRKVLMPKLKAKPIRTASGIAVVAVMCKPHRCPHISFTGNICVYCPGGPDSDFEYSTQSYTGYEPTSMRAIRARYDPFLQTRHRIEQLKQLGHSVDKVEFIVMGGTFMALPEEYRDYFIRNLHDALSGHTSNNIYEAVKYSERSLTKCIGITIETRPDYCMKRHLSDMLTYGCTRLEIGVQSVYEDVARDTNRGHTVKAVCESFHLAKDSGFKVVAHMMPDLPNVGLERDIEQFTEFFENPAFRPDGLKLYPTLVIRGTGLYELWKSGRYKSYSPSDLVELVARILALVPPWTRVYRVQRDIPMPLVSSGVEHGNLRELALARMKDLGIQCRDVRTREVGIQEIHHKVRPYQVELVRRDYVANGGWETFLSYEDPDQDILIGLLRLRKCSEETFRFELGGGVSIVRELHVYGSVVPVSSRDPTKFQHQGFGMLLMEEAERIAREEHGSGKIAVISGVGTRNYYRKIGYRLQGPYMVKMLK [ELP3] | 0.13 | -1.12 | -0.062 | -0.0597 | 51.9 | 51.4 |
| MRRAALRLCALGKGQLTPGRGLTQGPQNPKKQGIFHIHEVRDKLREIVGASTNWRDHVKAMEERKLLHSFLAKSQDGLPPRRMKDSYIEVLLPLGSEPELREKYLTVQNTVRFGRILEDLDSLGVLICYMHNKIHSAKMSPLSIVTALVDKIDMCKKSLSPEQDIKFSGHVSWVGKTSMEVKMQMFQLHGDEFCPVLDATFVMVARDSENKGPAFVNPLIPESPEEEELFRQGELNKGRRIAFSSTSLLKMAPSAEERTTIHEMFLSTLDPKTISFRSRVLPSNAVWMENSKLKSLEICHPQERNIFNRIFGGFLMRKAYELAWATACSFGGSRPFVVAVDDIMFQKPVEVGSLLFLSSQVCFTQNNYIQVRVHSEVASLQEKQHTTTNVFHFTFMSEKEVPLVFPKTYGESMLYLDGQRHFNSMSGPATLRKDYLVEP [ACOT9] | -1.25 | 1.48 | -0.111 | -0.0152 | 52.9 | 53.7 |
